We go through one substance from US20160058886A1.

The target of assay [1] is nucleolin at the surface of MDA-MB-231 and MDA-MB-435S breast cancer cells (UniProt P19338). Put plainly: flow cytometry, rhodamine geometric mean fluorescence, MDA-MB-435S cells.
For assay [2] the target is unchanged. Put plainly: flow cytometry, rhodamine geometric mean fluorescence, MDA-MB-231 cells.

Sequence of UniProt P19338 (P19338 2-710 limits assumed): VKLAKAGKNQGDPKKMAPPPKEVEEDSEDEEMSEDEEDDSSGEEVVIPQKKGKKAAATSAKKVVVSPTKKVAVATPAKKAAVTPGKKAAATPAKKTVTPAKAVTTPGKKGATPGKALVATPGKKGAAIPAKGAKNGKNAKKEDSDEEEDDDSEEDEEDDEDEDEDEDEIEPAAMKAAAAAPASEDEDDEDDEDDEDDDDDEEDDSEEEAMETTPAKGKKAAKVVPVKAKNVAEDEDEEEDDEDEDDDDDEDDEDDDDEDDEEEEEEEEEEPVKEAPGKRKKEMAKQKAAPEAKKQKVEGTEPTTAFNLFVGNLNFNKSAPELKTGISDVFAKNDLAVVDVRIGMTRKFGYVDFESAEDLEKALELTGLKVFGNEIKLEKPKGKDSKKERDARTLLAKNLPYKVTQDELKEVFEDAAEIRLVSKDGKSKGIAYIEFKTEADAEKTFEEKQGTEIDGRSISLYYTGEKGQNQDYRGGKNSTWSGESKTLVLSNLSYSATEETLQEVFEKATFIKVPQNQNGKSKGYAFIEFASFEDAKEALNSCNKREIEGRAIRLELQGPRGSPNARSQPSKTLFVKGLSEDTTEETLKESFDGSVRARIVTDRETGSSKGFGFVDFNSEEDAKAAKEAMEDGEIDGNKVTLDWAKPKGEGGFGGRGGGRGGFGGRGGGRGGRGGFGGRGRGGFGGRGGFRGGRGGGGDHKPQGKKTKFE

Regarding “F3 peptide-targeted liposomes (F3 peptide, SEQ ID NO:1, coupled through DSPE-PEG2k to pH-sensitive liposomes)”, in assay [1], the higher cellular association of the CD44+/ALDHhi population against the CD44-/ALDH-/low population (MDA-MB-435S) was determined as 61%. The higher cellular association of the CD44+/ALDHhi population against the CD44-/ALDH-/low population (MDA-MB-231) in assay [2] came out at 64%.
